The text below walks through data of paper PMC3643605 (Nucleic Acids Research, 2013).

First the molecules themselves.
T1: HU (C-His6) (Neisseria meningitidis, UniProt P64389 1-89)
T1 sequence: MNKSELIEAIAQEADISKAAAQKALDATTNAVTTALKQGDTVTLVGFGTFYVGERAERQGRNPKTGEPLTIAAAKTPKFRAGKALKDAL

T2: DMP12 (Neisseria meningitidis conserved hypothetical protein NMB2123), tag-free (N. meningitidis, UniProt Q9JXC6 1-118)
T2 sequence (looked up): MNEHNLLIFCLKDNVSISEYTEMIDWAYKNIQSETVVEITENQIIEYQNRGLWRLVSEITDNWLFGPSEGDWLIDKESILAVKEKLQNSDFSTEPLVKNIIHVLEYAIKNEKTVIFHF

B1: 8mer dsDNA (dsDNA)
DNA 1: CTCGCGAG
DNA 2: CTCGCGAG
B2: C-terminal His6-tagged Neisseria HU protein (natural protein, UniProt P64389 1-89, looked up)
chain: T1 sequence
B3: N-terminal His10-tagged DMP12 (natural protein, N. meningitidis, UniProt Q9JXC6 1-118, looked up)
chain: T2 sequence (looked up)

Read-outs that look alike come from different tables or passages of the source.

One series has as its target T1, HU (C-His6). As to the kind of experiment: ITC. Background: Isothermal titration calorimetry measures the heat released or taken up as one component is titrated into another.
The series “SEC” deals with the molecule itself. As to the kind of experiment: SEC. A general note: In gel filtration, larger molecules generally elute earlier.
The target of series [1] is T2, DMP12 (Neisseria meningitidis conserved …). Put plainly: ITC.
The series “AUC” deals with the molecule itself. As to the kind of experiment: AUC.
Series [2] has as its target T2, DMP12 (Neisseria meningitidis conserved …). As to the kind of experiment: ITC. The source holds these as a separate data set.
The target of series [3] is B2. Put plainly: SEC.

As for B1, the Kd (as a rule, a measure of binding affinity in units of concentration) with HU (C-His6) came out at 720 ± 60 nM.
B2: the stoichiometry N – broadly, a count of units in the complex or per binding partner – was 2 in “SEC”, 2 in “AUC” and 0.96 ± 0.01 in series [2]. In addition, the Kd was 2810 ± 430 nM in series [1] and 2820 ± 430 nM in series [2]. Also, the dH in series [2] is -6.17 ± 0.55 kcal/mol.
Turning to B3, in series [3], the “stoichiometry N” value is 1 DMP12 monomer per HU dimer.
